The text below walks through data of article PMC3212630.

Series [1] deals with T1, rCsrABb (carbon storage regulator A) (Borrelia burgdorferi, UniProt O51202 1-81).
T1 sequence: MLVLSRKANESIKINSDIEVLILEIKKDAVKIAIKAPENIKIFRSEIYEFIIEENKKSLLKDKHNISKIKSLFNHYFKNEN
The experiment in a line: EMSA. (Mobility shift assays separate free from complexed probe on a gel.)

The target in series [2] is T1, rCsrABb (carbon storage regulator A). Briefly: EMSA. The source holds these as a separate data set.

Where two headings read alike, the source gives them in different places.

GCAAAAGGAUUUGCCAAAGUCAGAAUUUAAAUUUUAUCAUGGAGGAAUGA (ssRNA) [flaB leader probe, wild type (P10, flaBp)]: the binding result in series [1] is given as “binds”.
On to GCAAAAAAAUUUGCCAAAGUCAGAAUUUAAAUUUUAUCAUAAAGGAAUGA (ssRNA) [flaB leader probe, BS1 BS2 mutated (P13)], for which the binding result in series [2] is recorded as “no binding”.
